Paper PMC3294029 (2013)
Positions count from the first letter of the chain named.

What was measured:
Experiment in all cases: fluorescence anisotropy
N-CoR RID2 peptide [1] = biological target: T1, N-CoR RID2 peptide (Homo sapiens)
T1 chain: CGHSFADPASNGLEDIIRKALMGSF

N-CoR RID2 peptide [2] = biological target: T2, N-CoR RID2 peptide (Homo sapiens, Rhodamine Red-labelled peptide)
T2 chain: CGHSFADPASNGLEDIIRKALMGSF

ACTR NR box 3 peptide [3] = biological target: T3, ACTR NR box 3 peptide (Homo sapiens, 521 nM ATRA, Rhodamine Red-labelled peptide)
T3 chain: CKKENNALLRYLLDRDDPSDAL

N-CoR RID2 peptide [4] = biological target: T4, N-CoR RID2 peptide (Homo sapiens, 209 nM ATRA, Rhodamine Red-labelled peptide)
T4 chain: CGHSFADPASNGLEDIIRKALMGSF

ACTR NR box 3 peptide [5] = biological target: T5, ACTR NR box 3 peptide (Homo sapiens, Rhodamine Red-labelled peptide)
T5 chain: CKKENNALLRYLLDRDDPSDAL

B1: RARα LBD (protein)
chain: ESYTLTPEVGELIEKVRKAHQETFPALCQLGKYTTNNSSEQRVSLDIDLWDKFSELSTKCIIKTVEFAKQLPGFTTLTIADQITLLKAACLDILILRICTRYTPEQDTMTFSDGLTLNRTQMHNAGFGPLTDLVFAFANQLLPLEMDDAETGLLSAICLICGDRQDLEQPDRVDMLQEPLLEALKVYVRKRRPSRPHMFPKMLMKITDLRSISAKGAERVITPKMEIPGSMPPLIQEMLENSEGLD
Kd (N-CoR RID2 peptide [1]): 12.2 µM

B2: RARα LBD (protein)
chain: B1 chain with P223L, M238T
Kd (N-CoR RID2 peptide [1]): 10.9 µM

B3: RARα LBD (protein)
chain: B1 chain with M122L, P223L
Kd (N-CoR RID2 peptide [1]): 18.6 µM

B4: RARα LBD (protein)
chain: B1 chain with P223L
Kd (N-CoR RID2 peptide [2]): 18.9 µM | Kd (ACTR NR box 3 peptide [3]): 55 µM | Kd (N-CoR RID2 peptide [4]): 74.2 µM | Kd (ACTR NR box 3 peptide [5]): 155 µM
